{"source": "ChEMBL document CHEMBL1123068", "about": "“2-Fluoroformycin and 2-aminoformycin. Synthesis and biological activity” (J Med Chem, 1985)", "proteins": {"B1": {"name": "Adenosine deaminase (Bos taurus), P56658 (protein)", "chain": "MAQTPAFNKPKVELHVHLDGAIKPETILYYGRKRGIALPADTPEELQNIIGMDKPLSLPEFLAKFDYYMPAIAGCREAVKRIAYEFVEMKAKDGVVYVEVRYSPHLLANSKVEPIPWNQAEGDLTPDEVVSLVNQGLQEGERDFGVKVRSILCCMRHQPSWSSEVVELCKKYREQTVVAIDLAGDETIEGSSLFPGHVKAYAEAVKSGVHRTVHAGEVGSANVVKEAVDTLKTERLGHGYHTLEDATLYNRLRQENMHFEVCPWSSYLTGAWKPDTEHPVVRFKNDQVNYSLNTDDPLIFKSTLDTDYQMTKNEMGFTEEEFKRLNINAAKSSFLPEDEKKELLDLLYKAYGMPSPASAEQCL"}}, "key": {"[1]": {"substrate": "Nc1nc(F)nc2c1ncn2[C@@H]1O[C@H](CO)[C@@H](O)[C@@H]1O", "assay": "Kinetic parameter was determined against adenosine deaminase expressed as Km"}, "[2]": {"substrate": "Nc1ncnc2c1ncn2[C@@H]1O[C@H](CO)[C@@H](O)[C@H]1O", "assay": "(§1) Kinetic parameter was determined against adenosine deaminase expressed as Vmax"}, "[3]": {"substrate": "Nc1nc(F)nc2c1ncn2[C@@H]1O[C@H](CO)[C@@H](O)[C@@H]1O", "assay": "as §1"}, "[4]": {"substrate": "Nc1nc(N)c2ncn([C@@H]3O[C@H](CO)[C@@H](O)[C@H]3O)c2n1", "assay": "as §1"}}}
{"protein": "B1", "values": [{"measurement": "Km", "setting": "[1]", "result": 81, "unit": "µM"}, {"measurement": "Vmax (µmol min-1 mg-1)", "setting": "[2]", "result": 435}, {"measurement": "Vmax", "setting": "[3]", "result": 0.78, "unit": "M/min/mg"}, {"measurement": "Vmax (µmol min-1 mg-1)", "setting": "[4]", "result": 119}]}
